From patent US10064928B2, “Peptides and combination of peptides for use in immunotherapy against CLL and other cancers” (IMMATICS BIOTECHNOLOGIES GMBH, priority 2015, dated 2018) come the findings set out here.

The target in assay [1] is HLA-A*02:01 (Homo sapiens, UniProt P04439, D140Y/D185E/D98H/E176V/E277Q/G131W/G231S/I119V/I121R/I166T/I218V/L300P/L318F/N151K/N90K/P208A/P217A/Q86G/Q94H/R138H/R169H/T345S). Nature of the assay: MHC binding assay (UV-ligand exchange, beta2m ELISA). As to conditions: binding of HLA-class I restricted peptides to HLA-A*02:01, β2m ELISA. An outline of the steps:
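UV-cleavable peptide in HLA monomers exchanged for test peptide by UV irradiation; exchange yield measured by streptavidin-capture ELISA with HRP anti-β2m (TMB, 450 nm) on 100-fold diluted complexes. Quantified against refolded HLA-A*02:01/MLA-001 standards (15-500 ng/ml).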
(In an ELISA, binding on a coated surface is turned into a signal by an enzyme label.)

For assay [2], the system named is CD8+ T cells. Description: In vitro T-cell priming assay with aAPCs loaded with peptide/MHC and anti-CD28, multimer readout. The format is cell-based, human. As to conditions: in vitro immunogenicity, HLA-A*02 restricted peptides; percentage of positive wells. From the text:
In order to obtain information regarding the immunogenicity of the TUMAPs of the present invention, the inventors performed investigations using an in vitro T-cell priming assay based on repeated stimulations of CD8+ T cells with artificial antigen presenting cells (aAPCs) loaded with peptide/MHC complexes and anti-CD28 antibody.
In order to perform in vitro stimulations by artificial antigen presenting cells loaded with peptide-MHC complex (pMHC) and anti-CD28 antibody, the inventors first isolated CD8+ T cells from fresh HLA-A*02 leukapheresis products via positive selection using CD8 microbeads (Miltenyi Biotec, Bergisch-Gladbach, Germany) of healthy donors obtained from the University clinics Mannheim, Germany, after informed consent.
PBMCs and isolated CD8+ lymphocytes were incubated in T-cell medium (TCM) until use consisting of RPMI-Glutamax (Invitrogen, Karlsruhe, Germany) supplemented with 10% heat inactivated human AB serum (PAN-Biotech, Aidenbach, Germany), 100 U/ml Penicillin/100 μg/ml Streptomycin (Cambrex, Cologne, Germany), 1 mM sodium pyruvate (CC Pro, Oberdorla, Germany), 20 μg/ml Gentamycin (Cambrex). 2.5 ng/ml IL-7 (PromoCell, Heidelberg, Germany) and 10 U/ml IL-2 (Novartis Pharma, Nürnberg, Germany) were also added to the TCM at this step.
Generation of pMHC/anti-CD28 coated beads, T-cell stimulations and readout was performed in a highly defined in vitro system using four different pMHC molecules per stimulation condition and 8 different pMHC molecules per readout condition.
The purified co-stimulatory mouse IgG2a anti human CD28 Ab 9.3 (Jung et al., 1987) was chemically biotinylated using Sulfo-N-hydroxysuccinimidobiotin as recommended by the manufacturer (Perbio, Bonn, Germany). Beads used were 5.6 μm diameter streptavidin coated polystyrene particles (Bangs Laboratories, Illinois, USA).
800.000 beads/200 μl were coated in 96-well plates in the presence of 4×12.5 ng different biotin-pMHC, washed and 600 ng biotin anti-CD28 were added subsequently in a volume of 200 μl. Stimulations were initiated in 96-well plates by co-incubating […] CD8+ T cells with 2×10^5 washed coated beads in 200 μl TCM supplemented with 5 ng/ml IL-12 (PromoCell) for 3 days at 37° C. Half of the medium was then exchanged by fresh TCM supplemented with 80 U/ml IL-2 and incubating was continued for 4 days at 37° C. This stimulation cycle was performed for a total of three times. For the pMHC multimer readout using 8 different pMHC molecules per condition, a two-dimensional combinatorial coding approach was used as previously described (Andersen et al., 2012) with minor modifications encompassing coupling to 5 different fluorochromes. Finally, multimeric analyses were performed by staining the cells with Live/dead near IR dye (Invitrogen, Karlsruhe, Germany), CD8-FITC antibody clone SK1 (BD, Heidelberg, Germany) and fluorescent pMHC multimers. For analysis, a BD LSRII SORP cytometer equipped with appropriate lasers and filters was used. Peptide specific cells were calculated as percentage of total CD8+ cells. Evaluation of multimeric analysis was done using the FlowJo software (Tree Star, Oreg., USA). In vitro priming of specific multimer+CD8+ lymphocytes was detected by comparing to negative control stimulations.

Consider “49 (FLTDLFAQL; listed as Homo sapiens) [compound 49]”, for which, in assay [1], the “Peptide Exchange (MHC class I binding score, peptide exchange yield)” value (“Peptide Exchange” for short) was ““++++” (≥75% = ++++)”. Moreover, in assay [2], the “Wells positive [%]” value is ““++” (20%-49% = ++)”.
Taken in the same sequence, the figures for “100 (ILNNEVFAI; listed as Homo sapiens) [compound 100]” were ““+++” (≥50 = +++)” and ““++” (20%-49% = ++)”.
With “307 (LLLTKPTEA; listed as Homo sapiens) [compound 307]”, the “Peptide Exchange” value in assay [1] is reported as ““+++” (≥50 = +++)”. The “Wells positive [%]” value in assay [2] is given as ““+” (<20% = +)”.
Taken in the same sequence, the figures for “56 (FVFEAPYTL; listed as Homo sapiens) [compound 56]” were ““+++” (≥50 = +++)” and ““++” (20%-49% = ++)”.
Taken in the same sequence, the figures for “32 (FIDKFTPPV; listed as Homo sapiens) [compound 32]” were ““++++” (≥75% = ++++)” and ““++++” (>=70% = ++++)”.
Turning to “320 (TIAPVTVAV; listed as Homo sapiens) [compound 320]”, the “Peptide Exchange” value in assay [1] was ““++++” (≥75% = ++++)”. Besides, the “Wells positive [%]” value in assay [2] is reported as ““+” (<20% = +)”.
Taken in the same sequence, the figures for “86 (HLYPGAVTI; listed as Homo sapiens) [compound 86]” were ““+++” (≥50 = +++)” and ““+” (<20% = +)”.
On the same counts, the results for “57 (GLSEISLRL; listed as Homo sapiens) [compound 57]” are ““++++” (≥75% = ++++)” and ““+” (<20% = +)”.
